Tested on: serum uric acid (sUA)
Assay: Serum uric acid (sUA) levels and sUA responders, open-label study of pegloticase with MTX (NCT03635957)
Assay type: in vivo, human
Experimental: The primary objective is to estimate the response rate during Month 6 (Weeks 20, 22, and 24), as measured by the sustained normalization of serum uric acid (SUA) to <6 mg/dL for at least 80% of the time during Month 6 in subjects receiving KXX with MTX.
The primary efficacy outcome endpoint is the sustained normalization of SUA to <6 mg/dL for at least 80% of the time during month 6 (weeks 20, 22, and 24) in subjects receiving KXX with MTX. This is slightly below the urate solubility threshold and this threshold has been the accepted standard for nearly all modern gout trials. Participants who achieve this endpoint were classified as “responders.” Serum uric acid (SUA) responders may also be defined as participants achieving and maintaining SUA <6 mg/dL for at least 80% of the time during Month 6 (Weeks 20, 22, and 24).
Blood samples may be collected prior to each pegloticase infusion for measurement of SUA levels using the Beckman Coulter AU System Uric Acid procedure. Participants were declared “non-responders” if there were SUA measures >6 mg/dL at 2 consecutive study visits beginning with the week 2 visit. […] If the SUA goal is not maintained before or at the 12-week mark, it was assumed that the participant had developed clinically relevant anti-pegloticase antibody and they received no further infusions. This assumption and subsequent discontinuation of pegloticase was consistent with the protocol of large phase III randomized controlled trials and the product label. A formal stopping rule was 2 occasions of SUA levels of greater than 6 mg/dL.
Clinical Chemistry—Blood samples were collected prior to each pegloticase infusion for measurement of SUA levels (primary efficacy parameter) using the Beckman Coulter AU System Uric Acid procedure. In this procedure uric acid is converted to hydrogen peroxide. Hydrogen peroxide reacts with reagent to produce a chromophore which is read bichromatically at 660/800 nm. The amount of dye formed is proportional to the uric acid concentration in the sample.
Serum samples for measurement of SUA levels were collected at the Screening Visit, the Week −4 Visit (prior to the first dose of MTX), and the Week −2 Visit during the MTX Run-in Period; within 48 hours prior to each pegloticase infusion and after the end of each pegloticase infusion prior to discharge from the site during the Pegloticase+IMM Period; at the non-infusion Week 52/End of Study/Early Termination Visits and at the Post Treatment 3 and 6 Month Follow-up Visits. Additional serum samples for SUA levels were collected at optional non-infusion (Frequent Sampling) Visits at Weeks 1 and 7. […] Subjects with SUA level >6 mg/dL at 2 consecutive visits beginning at Week 2 visit discontinued treatment, completed the End of Pegloticase Infusion Visit procedures within 2 weeks and continued the subject visits according to the protocol (without treatment).
Efficacy analyses were performed using the modified intention-to-treat (mITT) population, defined as all enrolled subjects who received ≥1 dose of pegloticase. The proportion of Month 6 responders was summarized, along with a 95% confidence interval for the proportion. The proportion of Month 3 and overall (Months 3 and 6 combined) responders was analyzed similarly.
A subject was declared a non-responder if the subject had SUA level >6 mg/dL at 2 consecutive study visits beginning with the Week 2 Visit. In addition, a subject who withdraws from study treatment for any reason after the first dose of pegloticase in the KXX+MTX Period and prior to Month 6 (for the primary endpoint) or Month 3 (for the secondary endpoint) was considered a non-responder if SUA values were not collected at the planned time points.
Patients were administered oral MTX (15 mg/week) and folate (1 mg/day) 4 weeks prior to the first pegloticase infusion (Day 1) and throughout the pegloticase treatment period. […]

[1] = Week 24 - Pre-Infusion, mITT, n=11
[2] = Week 26 - Pre-Infusion, Month 6 sUA Responders
[3] = Week 26 - Pre-Infusion, mITT, n=8
[4] = Week 28 - Pre-Infusion, Month 6 sUA Responders
[5] = Week 28 - Pre-Infusion, mITT, n=8
[6] = Week 30 - Pre-Infusion, Month 6 sUA Responders
[7] = Week 30 - Pre-Infusion, mITT, n=8
[8] = Week 32 - Post-Infusion, Month 6 sUA Responders
[9] = Week 32 - Post-Infusion, mITT, n=8
[10] = Week 32 - Pre-Infusion, Month 6 sUA Responders
[11] = Week 32 - Pre-Infusion, mITT, n=10
[12] = Week 34 - Post-Infusion, Month 6 sUA Responders
[13] = Week 34 - Post-Infusion, mITT, n=8

B1: pegloticase (protein)
chain: TYKKNDEVEFVRTGYGKDMIKVLHIQRDGKYHSIKEVATTVQLTLSSKKDYLHGDNSDVIPTDTIKNTVNVLAKFKGIKSIETFAVTICEHFLSSFKHVIRAQVYVEEVPWKRFEKNGVKHVHAFIYTPTGTHFCEVEQIRNGPPVIHSGIKDLKVLKTTQSGFEGFIKDQFTTLPEVKDRCFATQVYCKWRYHQGRDVDFEATWDTVRSIVLQKFAGPYDKGEYSPSVQKTLYDIQVLTLGQVPEIEDMEISLPNIHYLNIDMSKMGLINKEEVLLPLDNPYGKITGTVKRKLSSRL
modifications: monomethoxy PEG conjugated; Krystexxa Sequence
notes: covalent conjugate of uricase produced by a genetically modified strain of Escherichia coli and monomethoxypoly (ethylene glycol)
[1]
  sUA < 6 mg/dL, n (%): 11 (100%)
  sUA Change from Baseline, Mean (SD): −8.97 (2.810) mg/dL
  sUA Change from Baseline, Median: -8.80 mg/dL
  sUA Observed, Mean (SD): 0.30 (0.000) mg/dL
  sUA Observed, Median: 0.30 mg/dL
[2]
  sUA < 6 mg/dL, %: (100%)
  sUA Change from Baseline, Mean: -9.11 mg/dL
  sUA Change from Baseline, Median: -8.95 mg/dL
  sUA Observed, Mean: 0.30 mg/dL
  sUA Observed, Median: 0.30 mg/dL
[3]
  sUA < 6 mg/dL, n (%): 8 (100%)
  sUA Change from Baseline, Mean (SD): −9.11 (3.293) mg/dL
  sUA Change from Baseline, Median: -8.95 mg/dL
  sUA Observed, Mean (SD): 0.30 (0.000) mg/dL
  sUA Observed, Median: 0.30 mg/dL
[4]
  sUA < 6 mg/dL, %: (100%)
  sUA Change from Baseline, Mean: -9.11 mg/dL
  sUA Change from Baseline, Median: -8.95 mg/dL
  sUA Observed, Mean: 0.30 mg/dL
  sUA Observed, Median: 0.30 mg/dL
[5]
  sUA < 6 mg/dL, n (%): 8 (100%)
  sUA Change from Baseline, Mean (SD): −9.11 (3.293) mg/dL
  sUA Change from Baseline, Median: -8.95 mg/dL
  sUA Observed, Mean (SD): 0.30 (0.000) mg/dL
  sUA Observed, Median: 0.30 mg/dL
[6]
  sUA < 6 mg/dL, %: (100%)
  sUA Change from Baseline, Mean: -9.11 mg/dL
  sUA Change from Baseline, Median: -8.95 mg/dL
  sUA Observed, Mean: 0.30 mg/dL
  sUA Observed, Median: 0.30 mg/dL
[7]
  sUA < 6 mg/dL, n (%): 8 (100%)
  sUA Change from Baseline, Mean (SD): −9.11 (3.293) mg/dL
  sUA Change from Baseline, Median: -8.95 mg/dL
  sUA Observed, Mean (SD): 0.30 (0.000) mg/dL
  sUA Observed, Median: 0.30 mg/dL
[8]
  sUA < 6 mg/dL, %: (100%)
  sUA Change from Baseline, Mean: -9.11 mg/dL
  sUA Change from Baseline, Median: -8.95 mg/dL
  sUA Observed, Mean: 0.30 mg/dL
  sUA Observed, Median: 0.30 mg/dL
[9]
  sUA < 6 mg/dL, n (%): 8 (100%)
  sUA Change from Baseline, Mean (SD): −9.11 (3.293) mg/dL
  sUA Change from Baseline, Median: -8.95 mg/dL
  sUA Observed, Mean (SD): 0.30 (0.000) mg/dL
  sUA Observed, Median: 0.30 mg/dL
[10]
  sUA < 6 mg/dL, %: (100%)
  sUA Change from Baseline, Mean: -8.99 mg/dL
  sUA Change from Baseline, Median: -8.95 mg/dL
  sUA Observed, Mean: 0.30 mg/dL
  sUA Observed, Median: 0.30 mg/dL
[11]
  sUA < 6 mg/dL, n (%): 10 (100%)
  sUA Change from Baseline, Mean (SD): −8.99 (2.961) mg/dL
  sUA Change from Baseline, Median: -8.95 mg/dL
  sUA Observed, Mean (SD): 0.30 (0.000) mg/dL
  sUA Observed, Median: 0.30 mg/dL
[12]
  sUA < 6 mg/dL, %: (100%)
  sUA Change from Baseline, Mean: -9.11 mg/dL
  sUA Change from Baseline, Median: -8.95 mg/dL
  sUA Observed, Mean: 0.30 mg/dL
  sUA Observed, Median: 0.30 mg/dL
[13]
  sUA < 6 mg/dL, n (%): 8 (100%)
  sUA Change from Baseline, Mean (SD): −9.11 (3.293) mg/dL
  sUA Change from Baseline, Median: -8.95 mg/dL
  sUA Observed, Mean (SD): 0.30 (0.000) mg/dL
  sUA Observed, Median: 0.30 mg/dL
